From the supplement of paper PMC12458215
± gives the uncertainty stated by the source.

Test system: HEK293T
Test: plasma membrane surface immunostaining intensity (anti-HA, deep receptor scanning) (arbitrary fluorescence units); higher = higher plasma membrane expression
Conditions: GPCR class: A

Sequence	plasma membrane surface immunostaining intensity
MTFRDLLSVSFEGPRPDSSAGGSSAGGGGGSAGGAAPSEGPAVGGVPGGAGGGGGVVGAGSGEDNRSSAGEPGSAGAGGDVNGTAAVGGLVVSAQGVGVGVFLAAFILMAVAGNLLVILSVACNRHLQTVTNYFIVNLAVADLLLSATVLPFSATMEVLGFWAFGRAFCDVWAAVDVLCCTASILSLCTISVDRYVGVRHSLKYPAIMTERKAAAILALLWVVALVVSVGPLLGWKEPVPPDERFCGITEEAGYAVFSSVCSFYLPMAVIVVMYCRVYVVARSTTRSLEAGVKRERGKASEVVLRIHCRGAATGADGAHGMRSAKGHTFRSSLSVRLLKFSREKKAAKTLAIVVGVFVLCWFPFFFVLPLGSLFPQLKPSEGVFKVIFWLGYFNSCVNPLIYPCSSREFKRAFLRLLRCQCRRRRRRRPLWRVYGHHWRASTSGLRQDCAPSSGDAPPGAPLALTALPDPDPEPPGTPEMQAPVASRRKPPSAFREWRLLGPFRRPTTQLRAKVSSLSHKIRAGGAQRAEAACAQRSEVEAVSLGVPHEVAEGATCQAYELADYSNLRETDI [ADRA1D]	125 ± 25
MATLPAAETWIDGGGGVGADAVNLTASLAAGAATGAVETGWLQLLDQAGNLSSSPSALGLPVASPAPSQPWANLTNQFVQPSWRIALWSLAYGVVVAVAVLGNLIVIWIILAHKRMRTVTNYFLVNLAFSDASMAAFNTLVNFIYALHSEWYFGANYCRFQNFFPITAVFASIYSMTAIAVDRYMAIIDPLKPRLSATATKIVIGSIWILAFLLAFPQCLYSKTKVMPGRTLCFVQWPEGPKQHFTYHIIVIILVYCFPLLIMGITYTIVGITLWGGEIPGDTCDKYHEQLKAKRKVVKMMIIVVMTFAICWLPYHIYFILTAIYQQLNRWKYIQQVYLASFWLAMSSTMYNPIIYCCLNKRFRAGFKRAFRWCPFIKVSSYDELELKTTRFHPNRQSSMYTVTRMESMTVVFDPNDADTTRSSRKKRATPRDPSFNGCSRRNSKSASATSSFISSPYTSVDEYS [TACR3]	4780 ± 620
MSENGSFANCCEAGGWAVRPGWSGAGSARPSRTPRPPWVAPALSAVLIVTTAVDVVGNLLVILSVLRNRKLRNAGNLFLVSLALADLVVAFYPYPLILVAIFYDGWALGEEHCKASAFVMGLSVIGSVFNITAIAINRYCYICHSMAYHRIYRRWHTPLHICLIWLLTVVALLPNFFVGSLEYDPRIYSCTFIQTASTQYTAAVVVIHFLLPIAVVSFCYLRIWVLVLQARRKAKPESRLCLKPSDLRSFLTMFVVFVIFAICWAPLNCIGLAVAINPQEMAPQIPEGLFVTSYLLAYFNSCLNAIVYGLLNQNFRREYKRILLALWNPRHCIQDASKGSHAEGLQSPAPPIIGVQHQADAL [MTNR1B]	280 ± 17
MNTSAPPAVSPNITVLAPGKGPWQVAFIGITTGLLSLATVTGNLLVLISFKVNTELKTVNNYFLLSLACADLIIGTFSMNLYTTYLLMGHWALGTLACDLWLALDYVASNASVMNLLLISFDRYFSVTRPLSYRAKRTPRRAALMIGLAWLVSFVLWAPAILFWQYLVGERTVLAGQCYIQFLSQPIITFGTAMAAFYLPVTVMCTLYWRIYRETENRARELAALQGSETPGKGGGSSSSSERSQPGAEGSPETPPGRCCRCCRAPRLLQAYSWKEEEEEDEGSMESLTSSEGEEPGSEVVIKMPMVDPEAQAPTKQPPRSSPNTVKRPTKKGRDRAGKGQKPRGKEQLAKRKTFSLVKEKKAARTLSAILLAFILTWTPYNIMVLVSTFCKDCVPETLWELGYWLCYVNSTINPMCYALCNKAFRDTFRLLLLCRWDKRRWRKIPKRPGSVHRTPSRQC [CHRM1]	2530 ± 130
MKALIFAAAGLLLLLPTFCQSGMENDTNNLAKPTLPIKTFRGAPPNSFEEFPFSALEGWTGATITVKIKCPEESASHLHVKNATMGYLTSSLSTKLIPAIYLLVFVVGVPANAVTLWMLFFRTRSICTTVFYTNLAIADFLFCVTLPFKIAYHLNGNNWVFGEVLCRATTVIFYGNMYCSILLLACISINRYLAIVHPFTYRGLPKHTYALVTCGLVWATVFLYMLPFFILKQEYYLVQPDITTCHDVHNTCESSSPFQLYYFISLAFFGFLIPFVLIIYCYAAIIRTLNAYDHRWLWYVKASLLILVIFTICFAPSNIILIIHHANYYYNNTDGLYFIYLIALCLGSLNSCLDPFLYFLMSKTRNHSTAYLTK [F2RL2]	221 ± 21
MGTCDIVTEANISSGPESNTTGITAFSMPSWQLALWATAYLALVLVAVTGNAIVIWIILAHRRMRTVTNYFIVNLALADLCMAAFNAAFNFVYASHNIWYFGRAFCYFQNLFPITAMFVSIYSMTAIAADRYMAIVHPFQPRLSAPSTKAVIAGIWLVALALASPQCFYSTVTMDQGATKCVVAWPEDSGGKTLLLYHLVVIALIYFLPLAVMFVAYSVIGLTLWRRAVPGHQAHGANLRHLQAMKKFVKTMVLVVLTFAICWLPYHLYFILGSFQEDIYCHKFIQQVYLALFWLAMSSTMYNPIIYCCLNHRFRSGFRLAFRCCPWVTPTKEDKLELTPTTSLSTRVNRCHTKETLFMAGDTAPSEATSGEAGRPQDGSGLWFGYGLLAPTKTHVEI [TACR2]	474 ± 41
MTPNSTGEVPSPIPKGALGLSLALASLIITANLLLALGIAWDRRLRSPPAGCFFLSLLLAGLLTGLALPTLPGLWNQSRRGYWSCLLVYLAPNFSFLSLLANLLLVHGERYMAVLRPLQPPGSIRLALLLTWAGPLLFASLPALGWNHWTPGANCSSQAIFPAPYLYLEVYGLLLPAVGAAAFLSVRVLATAHRQLQDICRLERAVCRDEPSALARALTWRQARAQAGAMLLFGLCWGPYVATLLLSVLAYEQRPPLGPGTLLSLLSLGSASAAAVPVAMGLGDQRYTAPWRAAAQRCLQGLWGRASRDSPGPSIAYHPSSQSSVDLDLN [GPBAR1]	5940 ± 84
MGNCLHRAELSPSTENSSQLDFEDVWNSSYGVNDSFPDGDYGANLEAAAPCHSCNLLDDSALPFFILTSVLGILASSTVLFMLFRPLFRWQLCPGWPVLAQLAVGSALFSIVVPVLAPGLGSTRSSALCSLGYCVWYGSAFAQALLLGCHASLGHRLGAGQVPGLTLGLTVGIWGVAALLTLPVTLASGASGGLCTLIYSTELKALQATHTVACLAIFVLLPLGLFGAKGLKKALGMGPGPWMNILWAWFIFWWPHGVVLGLDFLVRSKLLLLSTCLAQQALDLLLNLAEALAILHCVATPLLLALFCHQATRTLLPSLPLPEGWSSHLDTLGSKS [ACKR1]	5030 ± 340
MWGRLLLWPLVLGFSLSGGTQTPSVYDESGSTGGGDDSTPSILPAPRGYPGQVCANDSDTLELPDSSRALLLGWVPTRLVPALYGLVLVVGLPANGLALWVLATQAPRLPSTMLLMNLAAADLLLALALPPRIAYHLRGQRWPFGEAACRLATAALYGHMYGSVLLLAAVSLDRYLALVHPLRARALRGRRLALGLCMAAWLMAAALALPLTLQRQTFRLARSDRVLCHDALPLDAQASHWQPAFTCLALLGCFLPLLAMLLCYGATLHTLAASGRRYGHALRLTAVVLASAVAFFVPSNLLLLLHYSDPSPSAWGNLYGAYVPSLALSTLNSCVDPFIYYYVSAEFRDKVRAGLFQRSPGDTVASKASAEGGSRGMGTHSSLLQ [F2RL3]	894 ± 240

Same assay, conditions: GPCR class: A (Olfactory)

Sequence	plasma membrane surface immunostaining intensity
MGDWNNSDAVEPIFILRGFPGLEYVHSWLSILFCLAYLVAFMGNVTILSVIWIESSLHQPMYYFISILAVNDLGMSLSTLPTMLAVLWLDAPEIQASACYAQLFFIHTFTFLESSVLLAMAFDRFVAICHPLHYPTILTNSVIGKIGLACLLRSLGVVLPTPLLLRHYHYCHGNALSHAFCLHQDVLRLSCTDARTNSIYGLCVVIATLGVDSIFILLSYVLILNTVLDIASREEQLKALNTCVSHICVVLIFFVPVIGVSMVHRFGKHLSPIVHILMADIYLLLPPVLNPIVYSVRTKQIRLGILHKFVLRRRF [OR51L1]	274 ± 150
MEEENATLLTEFVLTGFLYQPQWKIPLFLAFLVIYLITIMGNLGLIAVIWKDPHLHIPMYLLLGNLAFVDAWISSTVTPKMLNNFLAKSKMISLSECKIQFFSIAIGVTTECFLLATMAYDRYVAICKPLLYPAIMTNGLCIRLLILSYIAGILHALIHEGFLFRLTFCNSNIVHHIYCDTIPLSKISCTDSSINFLMVFIFSGSIQVFSIVTILISYTFVLFTVLEKKSDKGVRKAFSTCGAHLFSVCLYYGPLLLMYVGPASPQADGQNMVEPLFYTVIIPLLNPIIYSLRNKQVIVSFIKMLKRNVKVSY [OR5H15]	181 ± 56
MWQKNQTSLADFILEGLFDDSLTHLFLFSLTMVVFLIAVSGNTLTILLICIDPQLHTPMYFLLSQLSLMDLMHVSTIILKMATNYLSGKKSISFVGCATQHFLYLCLGGAECFLLAVMSYDRYVAICHPLRYAVLMNKKVGLMMAVMSWLGASVNSLIHMAILMHFPFCGPRKVYHFYCEFPAVVKLVCGDITVYETTVYISSILLLLPIFLISTSYVFILQSVIQMRSSGSKRNAFATCGSHLTVVSLWFGACIFSYMRPRSQCTLLQNKVGSVFYSIITPTLNSLIYTLRNKDVAKALRRVLRRDVITQCIQRLQLWLPRV [OR2AE1]	159 ± 49

Same assay, conditions: GPCR class: B

Sequence	plasma membrane surface immunostaining intensity
MDAALLHSLLEANCSLALAEELLLDGWGPPLDPEGPYSYCNTTLDQIGTCWPRSAAGALVERPCPEYFNGVKYNTTRNAYRECLENGTWASKINYSQCEPILDDKQRKYDLHYRIALVVNYLGHCVSVAALVAAFLLFLALRSIRCLRNVIHWNLITTFILRNVMWFLLQLVDHEVHESNEVWCRCITTIFNYFVVTNFFWMFVEGCYLHTAIVMTYSTERLRKCLFLFIGWCIPFPIIVAWAIGKLYYENEQCWFGKEPGDLVDYIYQGPIILVLLINFVFLFNIVRILMTKLRASTTSETIQYRKAVKATLVLLPLLGITYMLFFVNPGEDDLSQIMFIYFNSFLQSFQGFFVSVFYCFFNGEVRSAVRKRWHRWQDHHSLRVPMARAMSIPTSPTRISFHSIKQTAAV [CRHR2]	2380 ± 560
MAGVVHVSLAALLLLPMAPAMHSDCIFKKEQAMCLEKIQRANELMGFNDSSPGCPGMWDNITCWKPAHVGEMVLVSCPELFRIFNPDQVWETETIGESDFGDSNSLDLSDMGVVSRNCTEDGWSEPFPHYFDACGFDEYESETGDQDYYYLSVKALYTVGYSTSLVTLTTAMVILCRFRKLHCTRNFIHMNLFVSFMLRAISVFIKDWILYAEQDSNHCFISTVECKAVMVFFHYCVVSNYFWLFIEGLYLFTLLVETFFPERRYFYWYTIIGWGTPTVCVTVWATLRLYFDDTGCWDMNDSTALWWVIKGPVVGSIMVNFVLFIGIIVILVQKLQSPDMGGNESSIYLRLARSTLLLIPLFGIHYTVFAFSPENVSKRERLVFELGLGSFQGFVVAVLYCFLNGEVQAEIKRKWRSWKVNRYFAVDFKHRHPSLASSGVNGGTQLSILSKSSSQIRMSGLPADNLAT [ADCYAP1R1]	6416 ± 29
MTTSPILQLLLRLSLCGLLLQRAETGSKGQTAGELYQRWERYRRECQETLAAAEPPSGLACNGSFDMYVCWDYAAPNATARASCPWYLPWHHHVAAGFVLRQCGSDGQWGLWRDHTQCENPEKNEAFLDQRLILERLQVMYTVGYSLSLATLLLALLILSLFRRLHCTRNYIHINLFTSFMLRAAAILSRDRLLPRPGPYLGDQALALWNQALAACRTAQIVTQYCVGANYTWLLVEGVYLHSLLVLVGGSEEGHFRYYLLLGWGAPALFVIPWVIVRYLYENTQCWERNEVKAIWWIIRTPILMTILINFLIFIRILGILLSKLRTRQMRCRDYRLRLARSTLTLVPLLGVHEVVFAPVTEEQARGALRFAKLGFEIFLSSFQGFLVSVLYCFINKEVQSEIRRGWHHCRLRRSLGEEQRQLPERAFRALPSGSGPGEVPTSRGLSSGTLPGPGNEASRELESYC [GIPR]	6435 ± 30
